Laboratory results from patent publication US20240309076A1.

Target: recombinant full-length human Tau (human) (UniProt P10636)
Assay: indirect ELISA, Tau coated on the plate

EC50: 15 nM
B1: NI-502.4P3 (antibody, V domains shown)
VH: EVQLVQSGAEVKKPGESLKISCKVSGYDFSKYWIGWVRQMPGKGLEWMGLIYPGDSDTRYSPSLEGQVSISADKSISAAYLQFSSLKASDSAMYYCVRKGYSAYLGGWFDPWGQGTLVTVSS
VL: DIQLTQSPDSLAASLGERVTINCRSSQNIFYNSNNKNFLAWYQQKAGQSPKLLIYWASTRESGVPDRFSGSGSGTDFTLTISGLQAGDVAVYFCQQYFTDAPTFGGGTKVEIK
